Consider 1 molecule from article PMC3064786.

In the data set the target is HMGA1a-FLAG (UniProt P17096 1-107). In words: EMSA. A general note: A gel shift assay detects complexes by their altered migration in electrophoresis.
HMGA1a-FLAG, sequence (P17096 whole entry): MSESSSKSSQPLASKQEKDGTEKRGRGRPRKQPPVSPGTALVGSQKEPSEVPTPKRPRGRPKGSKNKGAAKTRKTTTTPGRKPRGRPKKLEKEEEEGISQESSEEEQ

B1: IL2-Rα promoter fragment (-136 to -76) (dsDNA)
DNA 1: ACCGCAAACTATATTGTCATCAAAAAAAAAAAAAAAAAAACACTTCCTATATTTGAGATG
DNA 2: CATCTCAAATATAGGAAGTGTTTTTTTTTTTTTTTTTTTGATGACAATATAGTTTGCGGT
For the molecule B1, the binding result is “binds”.
